Target: Flag-tagged BPGAP1
Test: co-immunoprecipitation (anti-Flag M2 beads) with immunoblot quantification
Settings: HEK293T cell lysates; three independent experiments; parent: est. 1.0; read off a plot

Substance: HA-tagged Rac1, wild-type (WT) (from UniProt P63000) G12V
- ratio to parent: 0.72 fold change

Substance: HA-tagged Rac1, wild-type (WT) (from UniProt P63000) T17N
- ratio to parent: 2.2 fold change
